Experiments:
[1] = target: T1, human PD-1 extracellular domain protein expressed in Example 1 (tag not stated) (human, UniProt Q15116 25-170); experiment: ELISA, PD-1 coated
T1 construct: extracellular domain; also called PD-1 protein; not shown: human IgG1 Fc or his tag
Method: PD-1 expressed in Example 1 was diluted to a concentration of 1 μg/ml with PBS buffer, pH 7.4, and added to a 96-well microplate (Corning, CLS3590-100EA) at 50 μl per well, thereby incubating in an incubator at 37° C. for 2 hours. After discarding the liquid, a blocking solution of 5% skimmed milk (Shanghai Shenggong Biological Engineering Co., Ltd., A600669-0250) diluted with PBS was added at 200 μl per well, followed by incubating at 37° C. for 3 hours or 4° C. overnight (16-18 hours)) for blocking. Subsequently, the blocking solution was discarded, and the microplate was washed 5 times with PBST buffer (pH 7.4 PBS containing 0.05% tween-20). […] Subsequently, the microplate was washed 5 times with PBST, then 50 μl/well of 1:2500 diluted HRP-labeled secondary antibody (Jackson Immuno Research, 115-035-003) was added, thereby incubating at 37° C. for 1 hour. After washing the microplate 5 times with PBST, 50 μl/well TMB chromogenic substrate (KPL, 52-00-03) was added, then incubated at room temperature for 5-10 min. Finally, 50 μl/well of 1M H₂SO₄ was added to stop the reaction. […] Go microplate reader (ThermoFisher, 51119200) was used to read the absorption value at 450 nm and the EC50 based on the OD value was calculated.

[2] = target: T2, human TIM-3 extracellular domain-human IgG1 Fc fusion protein (human, UniProt Q8TDQ0 22-199); experiment: ELISA; PBS, 37°C 7 days
T2 construct: Made in house or bought (ACROBiosystems TM3-H5258); also called TIM-3-hFc; not shown: human IgG1 Fc

[3] = target: T1, human PD-1 extracellular domain protein …; experiment: ELISA; PBS, 37°C 7 days
[4] = target: T2, human TIM-3 extracellular domain-human …; experiment: ELISA; pH 6.0, 37°C 7 days
[5] = target: T1, human PD-1 extracellular domain protein …; experiment: ELISA; pH 6.0, 37°C 7 days
[6] = target: T2, human TIM-3 extracellular domain-human …; experiment: ELISA; PBS, 0 day, against 0 day
[7] = target: T1, human PD-1 extracellular domain protein …; experiment: ELISA; PBS, 0 day, against 0 day
[8] = target: T2, human TIM-3 extracellular domain-human …; experiment: ELISA; pH 5.5, 40°C 0 day (-80°C)
[9] = target: T1, human PD-1 extracellular domain protein …; experiment: ELISA; pH 5.5, 40°C 0 day (-80°C)
[10] = target: T2, human TIM-3 extracellular domain-human …; experiment: ELISA; 15 mg/mL in PBS, 37°C 0 day (-80°C)
[11] = target: T1, human PD-1 extracellular domain protein …; experiment: ELISA; 15 mg/mL in PBS, 37°C 0 day (-80°C)
[12] = target: T2, human TIM-3 extracellular domain-human …; experiment: ELISA; PBS, 37°C 14 days (degraded sample)
[13] = target: T1, human PD-1 extracellular domain protein …; experiment: ELISA; PBS, 37°C 14 days (degraded sample)
[14] = target: T2, human TIM-3 extracellular domain-human …; experiment: ELISA; preparation buffer, 37°C 7 days, against 0 day
[15] = target: T1, human PD-1 extracellular domain protein …; experiment: as above
[16] = target: T2, human TIM-3 extracellular domain-human …; experiment: ELISA; 15 mg/mL, His buffer pH 5.5, 37°C 0 day (-80°C)
[17] = target: T1, human PD-1 extracellular domain protein …; experiment: as above
[18] = target: T3, TIM-3-hFc (Acro biosystems, 22-142) (human, UniProt Q8TDQ0 22-142); experiment: double-sandwich ELISA: TIM-3-hFc coated, LB141 titrated, detected with PD-1-his and anti-his-HRP
T3 construct: Bought; not shown: human Fc (hFc)

[19] = target: T1, human PD-1 extracellular domain protein …; experiment: double-sandwich ELISA: PD-1 coated, LB141 titrated, detected with Bio-TIM-3-his and streptavidin-HRP
Method: After discarding the liquid, 200 μl/well of blocking solution of 5% skimmed milk (Sangon Biotech (Shanghai) Co., Ltd., A600669-0250) diluted with PBS was added, and the microplate was placed at 4° C. overnight (16-18 hours) for blocking. After discarding the blocking solution, the microplate was washed 5 times with PBST buffer (pH 7.4 PBS containing 0.05% tween-20). […] Followed by washing the plate 5 times with PBST, 50 μl/well of 1 μg/ml Bio-TIM-3-his (ACROBiosystems, TM-H5229) was added and incubated at 37° C. for 1 hour. Then the microplate was washed 5 times with PBST again, and 50 μl/well 1:1000 diluted streptavidin-HRP secondary antibody (Nanjing Genscript Biotech Corporation, M00091) was added and incubated at 37° C. for 1 hour. After washing the microplate 5 times with PBST, 50 μDwell TMB chromogenic substrate (KPL, 52-00-03) was added and incubated at room temperature for 5-10 min.

EC50 [1]: 0.127 nM
EC50 [2]: 0.325 nM
EC50 [3]: 0.339 nM
EC50 [4]: 0.136 nM
EC50 [5]: 0.116 nM
Fold change of EC50 [6]: 1 ratio
Fold change of EC50 [7]: 1 ratio
EC50 [8]: 0.36 nM
EC50 [9]: 0.181 nM
EC50 [10]: 0.253 nM
EC50 [11]: 0.293 nM
EC50 [12]: 0.685 nM
EC50 [13]: 0.4 nM
Fold change of EC50 [14]: 1.07 ratio
Fold change of EC50 [15]: 0.86 ratio
EC50 [16]: 0.148 nM
EC50 [17]: 0.144 nM
EC50 [18]: 0.931 nM
EC50 [19]: 0.816 nM
B1: bispecific antibody LB141 (bispecific antibody, human IgG4 S228P, kappa)
light: EIVLTQSPATLSLSPGERATLSCRASKGVSTSGYSYLHWYQQKPGQAPRLLIYLASYLESGVPARFSGSGSGTDFTLTISSLEPEDFAVYYCQHSRDLPLTFGGGTKVEIKRTVAAPSVFIFPPSDEQLKSGTASVVCLLNNFYPREAKVQWKVDNALQSGNSQESVTEQDSKDSTYSLSSTLTLSKADYEKHKVYACEVTHQGLSSPVTKSFNRGEC
heavy: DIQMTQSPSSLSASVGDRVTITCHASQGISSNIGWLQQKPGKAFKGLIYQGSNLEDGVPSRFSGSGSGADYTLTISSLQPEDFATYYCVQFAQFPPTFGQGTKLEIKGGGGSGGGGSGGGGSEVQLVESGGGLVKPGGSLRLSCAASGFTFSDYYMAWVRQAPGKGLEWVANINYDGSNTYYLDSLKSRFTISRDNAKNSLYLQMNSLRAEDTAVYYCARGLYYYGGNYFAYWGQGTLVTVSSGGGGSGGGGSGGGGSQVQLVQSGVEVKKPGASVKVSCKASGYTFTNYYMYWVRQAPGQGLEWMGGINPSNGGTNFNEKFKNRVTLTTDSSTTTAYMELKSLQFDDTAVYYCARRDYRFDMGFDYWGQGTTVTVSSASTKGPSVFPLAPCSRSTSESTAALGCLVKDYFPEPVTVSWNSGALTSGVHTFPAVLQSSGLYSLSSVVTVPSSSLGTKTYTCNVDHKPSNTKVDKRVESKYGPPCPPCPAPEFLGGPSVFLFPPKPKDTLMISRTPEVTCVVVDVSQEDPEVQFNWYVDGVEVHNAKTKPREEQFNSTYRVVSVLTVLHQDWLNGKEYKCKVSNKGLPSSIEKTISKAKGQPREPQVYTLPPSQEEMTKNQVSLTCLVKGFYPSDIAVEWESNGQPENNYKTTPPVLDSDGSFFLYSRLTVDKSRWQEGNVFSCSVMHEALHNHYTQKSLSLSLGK
notes: ab6VL-(G4S)3-ab6VH-(G4S)3-PemVH-hIgG4 with PemVL-κ
